This is an account of results in EP1275713A1.

The test deals with human TLR4 (human) (UniProt O00206). As to the kind of experiment: BIACORE 3000: TLR4-COS cells (1.7 × 10^5 cells/mL) premixed with 33 µg/mL sCD14(1-307)S286C for 20 minutes, injected over immobilized sCD14(1-356)/LPS. In general terms: Surface plasmon resonance follows binding to a sensor surface in real time, without labels.
Sequence of UniProt O00206 (O00206 24-839): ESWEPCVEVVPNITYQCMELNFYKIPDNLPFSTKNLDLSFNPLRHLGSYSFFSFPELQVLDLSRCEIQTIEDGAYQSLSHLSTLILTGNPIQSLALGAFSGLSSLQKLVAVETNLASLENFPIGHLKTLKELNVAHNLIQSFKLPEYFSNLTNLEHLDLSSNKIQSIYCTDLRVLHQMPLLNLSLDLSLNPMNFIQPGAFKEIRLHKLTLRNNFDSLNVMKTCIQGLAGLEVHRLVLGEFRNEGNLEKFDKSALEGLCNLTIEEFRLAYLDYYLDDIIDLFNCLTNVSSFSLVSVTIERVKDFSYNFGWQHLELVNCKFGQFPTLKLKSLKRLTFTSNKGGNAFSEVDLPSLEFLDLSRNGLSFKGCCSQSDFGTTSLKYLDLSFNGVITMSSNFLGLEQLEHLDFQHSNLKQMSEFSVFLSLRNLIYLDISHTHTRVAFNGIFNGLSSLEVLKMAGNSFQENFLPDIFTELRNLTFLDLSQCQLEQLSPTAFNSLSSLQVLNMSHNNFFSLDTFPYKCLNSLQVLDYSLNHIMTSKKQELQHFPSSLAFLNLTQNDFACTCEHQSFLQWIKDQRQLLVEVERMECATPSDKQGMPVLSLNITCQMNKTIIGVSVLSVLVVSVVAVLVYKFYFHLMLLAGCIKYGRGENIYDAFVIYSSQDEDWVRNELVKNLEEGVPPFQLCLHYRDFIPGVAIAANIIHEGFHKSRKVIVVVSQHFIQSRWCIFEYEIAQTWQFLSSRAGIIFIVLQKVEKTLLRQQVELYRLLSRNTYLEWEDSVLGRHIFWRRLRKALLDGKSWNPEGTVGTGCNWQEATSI

B1: sCD14(1-307)S286C (receptor)
chain: TTPEPCELDDEDFRCVCNFSEPQPDWSEAFQCVSAVEVEIHAGGLNLEPFLKRVDADADPRQYADTVKALRVRRLTVGAAQVPAQLLVGALRVLAYSRLKELTLEDLKITGTMPPLPLEATGLALSSLRLRNVSWATGRSWLAELQQWLKPGLKVLSIAQAHSPAFSCEQVRAFPALTSLDLSDNPGLGERGLMAALCPHKFPAIQNLALRNTGMETPTGVCAALAAAGVQPHSLDLSHNSLRATVNPSAPRCMWSSALNSLNLSFAGLEQVPKGLPAKLRVLDLCCNRLNRAPQPDELPEVDNLTL
Regarding B1, the suppression of binding was found to be 100%.
